These results are taken from patent publication US8188039 (ARK THERAPEUTICS GROUP, dated 2012).

This data set deals with the molecule itself. Kind of data set: homodimer formation, SDS-PAGE on non-reducing conditions. The protocol: Purified proteins were analyzed by SDS-PAGE in both denaturing and non-denaturing conditions, staining the gels with Silver Snap Stain KitII (Pierce) or Page Blue Protein Staining Solution (Fermentas). Alternatively, proteins were transferred to nitrocellulose membrane and detected using a VEGF-D monoclonal antibody (MAB286, R&D Systems).
Covalent dimer formation: The ability of VEGF-$D^{\Delta N \Delta C}$, VEGF-$D^{\Delta N \Delta C}$25A and VEGF-$D^{\Delta N \Delta C}$53A to form covalent dimers was evaluated by SDS-PAGE on non-reducing conditions. […] As expected, covalent dimer formation of VEGF-$D^{\Delta N \Delta C}$53A was hindered.

B1: VEGF-D^ΔNΔC (ligand, not shown: small tags and cut ends)
chain: FYDIETLKVIDEEWQRTQCSPRETCVEVASELGKSTNTFFKPPCVNVFRCGGCCNEESLICMNTSTSYISKQLFEISVPLTSVPELVPVKVANHTGCKCLPTAPRHPYSHHHHHH
notes: Amino acids 93-201 of wild-type VEGF-D with N-terminal Flag-tag and C-terminal 6xHis; found partially as a covalent dimer, otherwise non-covalent dimer or monomer; also called mature form of VEGF-D; native VEGF-D^ΔNΔC
B1: the binding result was “binds”.

B2: VEGF-D^ΔNΔC25A (ligand, not shown: small tags and cut ends)
chain: FYDIETLKVIDEEWQRTQCSPRETAVEVASELGKSTNTFFKPPCVNVFRCGGCCNEESLICMNTSTSYISKQLFEISVPLTSVPELVPVKVANHTGCKCLPTAPRHPYSHHHHHH
notes: Formed more covalent dimer than the native form; also called Cys25 to Ala mutant of VEGF-D^ΔNΔC
Take B2: the binding result is “binds”.
